# According to US20080113383A1 (FIBRO GEN, published 2008):
# Where no end group is shown, it is not given here.
# Molecular target: EGLN3
# Assay: cell-based or functional assay
row,Binder,Activity (%)*
1,DTDLDLEAIAPYIPADDDFQ [DTDLDLEAIApYIPADDDFQ],104%
2,DTDLDLEAGAPYIPADDDFQ [DTDLDLEAGApYIPADDDFQ],12.2%
3,DTDLDAEASAPYIPADDDFQ [DTDLDAEASApYIPADDDFQ],4.11%
4,DTDLDLEAEAPYIPADDDFQ [DTDLDLEAEApYIPADDDFQ],16.9%
5,DTDLDLEMLKPYIPMDDDFQ (not fully specified; printed as DTDLDLEMLKpYIPMDDDFQ) [DTDLDLEMLKpYIPMDDDFQ],74.5%
6,DTDLDLEMLQPYIPMDDDFQ (not fully specified; printed as DTDLDLEMLQpYIPMDDDFQ) [DTDLDLEMLQpYIPMDDDFQ],59.9%
7,DTDLDLEMLMPYIPMDDDFQ (not fully specified; printed as DTDLDLEMLMpYIPMDDDFQ) [DTDLDLEMLMpYIPMDDDFQ],58.9%
8,DTDLDLEMLIPYIPMDDDFQ (not fully specified; printed as DTDLDLEMLIpYIPMDDDFQ) [DTDLDLEMLIpYIPMDDDFQ],101%
9,DTDLDLEMLRPYIPMDDDFQ (not fully specified; printed as DTDLDLEMLRpYIPMDDDFQ) [DTDLDLEMLRpYIPMDDDFQ],77.6%
10,DTDLDLEMLHPYIPMDDDFQ (not fully specified; printed as DTDLDLEMLHpYIPMDDDFQ) [DTDLDLEMLHpYIPMDDDFQ],68.2%
11,DTDLDLEMLEPYIPMDDDFQ (not fully specified; printed as DTDLDLEMLEpYIPMDDDFQ) [DTDLDLEMLEpYIPMDDDFQ],52.8%
12,DTDLDMEALAPYIPADDDFQ (not fully specified; printed as DTDLDMEALApYIPADDDFQ) [DTDLDMEALApYIPADDDFQ],128%
13,DTDLDLEMLFPYIPMDDDFQ (not fully specified; printed as DTDLDLEMLFpYIPMDDDFQ) [DTDLDLEMLFpYIPMDDDFQ],59.3%
14,DTDLDLEMLCPYIPMDDDFQ (not fully specified; printed as DTDLDLEMLCpYIPMDDDFQ) [DTDLDLEMLCpYIPMDDDFQ],63.1%
15,DTDLDLEMLLPYIPMDDDFQ (not fully specified; printed as DTDLDLEMLLpYIPMDDDFQ) [DTDLDLEMLLpYIPMDDDFQ],46.2%
16,DTDLDLEAFAPYIPADDDFQ [DTDLDLEAFApYIPADDDFQ],76.4%
17,DTDLDLEARAPYIPADDDFQ [DTDLDLEARApYIPADDDFQ],68.6%
18,DTDLDLEAYAPYIPADDDFQ (not fully specified; printed as DTDLDLEAYApYIPADDDFQ) [DTDLDLEAYApYIPADDDFQ],90.1%
19,DTDLDIEAIAPYIPADDDFQ [DTDLDIEAIApYIPADDDFQ],72.8%
20,DTDLDLEATAPYIPADDDFQ [DTDLDLEATApYIPADDDFQ],63.2%
21,DTDLDFEALAPYIPADDDFQ [DTDLDFEALApYIPADDDFQ],142%

# Molecular target: EGLN1
# Assay: cell-based or functional assay
row,Binder,Activity (%)*
1,DTDLDLEAIAPYIPADDDFQ [DTDLDLEAIApYIPADDDFQ],88%
2,DTDLDLEAGAPYIPADDDFQ [DTDLDLEAGApYIPADDDFQ],11.3%
3,DTDLDAEASAPYIPADDDFQ [DTDLDAEASApYIPADDDFQ],10.5%
4,DTDLDLEAEAPYIPADDDFQ [DTDLDLEAEApYIPADDDFQ],9.97%
5,DTDLDLEMLKPYIPMDDDFQ (not fully specified; printed as DTDLDLEMLKpYIPMDDDFQ) [DTDLDLEMLKpYIPMDDDFQ],68.7%
6,DTDLDLEMLQPYIPMDDDFQ (not fully specified; printed as DTDLDLEMLQpYIPMDDDFQ) [DTDLDLEMLQpYIPMDDDFQ],45.1%
7,DTDLDLEMLMPYIPMDDDFQ (not fully specified; printed as DTDLDLEMLMpYIPMDDDFQ) [DTDLDLEMLMpYIPMDDDFQ],26.4%
8,DTDLDLEMLIPYIPMDDDFQ (not fully specified; printed as DTDLDLEMLIpYIPMDDDFQ) [DTDLDLEMLIpYIPMDDDFQ],15.6%
9,DTDLDLEMLRPYIPMDDDFQ (not fully specified; printed as DTDLDLEMLRpYIPMDDDFQ) [DTDLDLEMLRpYIPMDDDFQ],19.8%
10,DTDLDLEMLHPYIPMDDDFQ (not fully specified; printed as DTDLDLEMLHpYIPMDDDFQ) [DTDLDLEMLHpYIPMDDDFQ],2.41%
11,DTDLDLEMLEPYIPMDDDFQ (not fully specified; printed as DTDLDLEMLEpYIPMDDDFQ) [DTDLDLEMLEpYIPMDDDFQ],2.27%
12,DTDLDMEALAPYIPADDDFQ (not fully specified; printed as DTDLDMEALApYIPADDDFQ) [DTDLDMEALApYIPADDDFQ],86.4%
13,DTDLDLEMLFPYIPMDDDFQ (not fully specified; printed as DTDLDLEMLFpYIPMDDDFQ) [DTDLDLEMLFpYIPMDDDFQ],4.16%
14,DTDLDLEMLCPYIPMDDDFQ (not fully specified; printed as DTDLDLEMLCpYIPMDDDFQ) [DTDLDLEMLCpYIPMDDDFQ],1.94%
15,DTDLDLEMLLPYIPMDDDFQ (not fully specified; printed as DTDLDLEMLLpYIPMDDDFQ) [DTDLDLEMLLpYIPMDDDFQ],2.36%
16,DTDLDLEAFAPYIPADDDFQ [DTDLDLEAFApYIPADDDFQ],82.2%
17,DTDLDLEARAPYIPADDDFQ [DTDLDLEARApYIPADDDFQ],79%
18,DTDLDLEAYAPYIPADDDFQ (not fully specified; printed as DTDLDLEAYApYIPADDDFQ) [DTDLDLEAYApYIPADDDFQ],77.2%
19,DTDLDIEAIAPYIPADDDFQ [DTDLDIEAIApYIPADDDFQ],72.5%
20,DTDLDLEATAPYIPADDDFQ [DTDLDLEATApYIPADDDFQ],68.2%
21,DTDLDFEALAPYIPADDDFQ [DTDLDFEALApYIPADDDFQ],65.2%

# Molecular target: EGLN2
# Assay: cell-based or functional assay
row,Binder,Activity (%)*
1,DTDLDLEAIAPYIPADDDFQ [DTDLDLEAIApYIPADDDFQ],89%
2,DTDLDLEAGAPYIPADDDFQ [DTDLDLEAGApYIPADDDFQ],9.84%
3,DTDLDAEASAPYIPADDDFQ [DTDLDAEASApYIPADDDFQ],8.82%
4,DTDLDLEAEAPYIPADDDFQ [DTDLDLEAEApYIPADDDFQ],13.2%
5,DTDLDLEMLKPYIPMDDDFQ (not fully specified; printed as DTDLDLEMLKpYIPMDDDFQ) [DTDLDLEMLKpYIPMDDDFQ],57.7%
6,DTDLDLEMLQPYIPMDDDFQ (not fully specified; printed as DTDLDLEMLQpYIPMDDDFQ) [DTDLDLEMLQpYIPMDDDFQ],38.1%
7,DTDLDLEMLMPYIPMDDDFQ (not fully specified; printed as DTDLDLEMLMpYIPMDDDFQ) [DTDLDLEMLMpYIPMDDDFQ],27.8%
8,DTDLDLEMLIPYIPMDDDFQ (not fully specified; printed as DTDLDLEMLIpYIPMDDDFQ) [DTDLDLEMLIpYIPMDDDFQ],17.8%
9,DTDLDLEMLRPYIPMDDDFQ (not fully specified; printed as DTDLDLEMLRpYIPMDDDFQ) [DTDLDLEMLRpYIPMDDDFQ],14.3%
10,DTDLDLEMLHPYIPMDDDFQ (not fully specified; printed as DTDLDLEMLHpYIPMDDDFQ) [DTDLDLEMLHpYIPMDDDFQ],3.47%
11,DTDLDLEMLEPYIPMDDDFQ (not fully specified; printed as DTDLDLEMLEpYIPMDDDFQ) [DTDLDLEMLEpYIPMDDDFQ],3.35%
12,DTDLDMEALAPYIPADDDFQ (not fully specified; printed as DTDLDMEALApYIPADDDFQ) [DTDLDMEALApYIPADDDFQ],79.1%
13,DTDLDLEMLFPYIPMDDDFQ (not fully specified; printed as DTDLDLEMLFpYIPMDDDFQ) [DTDLDLEMLFpYIPMDDDFQ],0.63%
14,DTDLDLEMLCPYIPMDDDFQ (not fully specified; printed as DTDLDLEMLCpYIPMDDDFQ) [DTDLDLEMLCpYIPMDDDFQ],0.4%
15,DTDLDLEMLLPYIPMDDDFQ (not fully specified; printed as DTDLDLEMLLpYIPMDDDFQ) [DTDLDLEMLLpYIPMDDDFQ],-0.42%
16,DTDLDLEAFAPYIPADDDFQ [DTDLDLEAFApYIPADDDFQ],73.9%
17,DTDLDLEARAPYIPADDDFQ [DTDLDLEARApYIPADDDFQ],78.6%
18,DTDLDLEAYAPYIPADDDFQ (not fully specified; printed as DTDLDLEAYApYIPADDDFQ) [DTDLDLEAYApYIPADDDFQ],67.8%
19,DTDLDIEAIAPYIPADDDFQ [DTDLDIEAIApYIPADDDFQ],64.3%
20,DTDLDLEATAPYIPADDDFQ [DTDLDLEATApYIPADDDFQ],54.9%
21,DTDLDFEALAPYIPADDDFQ [DTDLDFEALApYIPADDDFQ],58.6%
